Data set [1] addresses T1, Saccharomyces cerevisiae α-factor pheromone receptor (Ste2) (Saccharomyces cerevisiae) (UniProt D6VTK4).
T1 sequence: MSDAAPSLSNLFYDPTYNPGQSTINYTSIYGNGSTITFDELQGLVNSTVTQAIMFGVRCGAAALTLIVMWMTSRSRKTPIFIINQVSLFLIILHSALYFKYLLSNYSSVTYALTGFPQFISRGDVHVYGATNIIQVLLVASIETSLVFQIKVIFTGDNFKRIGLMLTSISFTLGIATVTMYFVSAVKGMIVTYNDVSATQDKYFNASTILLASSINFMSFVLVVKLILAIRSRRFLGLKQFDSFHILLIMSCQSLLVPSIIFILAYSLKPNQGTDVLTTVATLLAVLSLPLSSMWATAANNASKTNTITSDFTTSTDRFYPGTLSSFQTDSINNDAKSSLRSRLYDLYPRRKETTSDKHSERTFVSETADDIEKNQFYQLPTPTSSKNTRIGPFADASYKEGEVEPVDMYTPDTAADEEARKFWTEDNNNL
The data set is described as follows: cell-based or functional assay.

The test system of data set [2] is pheromone response pathway (PRP). As to the method:
To investigate the dose-response features of the selected promoters PMFA2, PFUS1, PAGA2, PFIG.1, PMFA1, PYCL076W, PHPF1, PIME4, PCSS1, PTDH3, PPGK1 and P6XLexOLEU2 upon GPCR stimulation the strains were pre-grown in SC (24 hrs.), whereafter, for each replicate, cells were transferred to 200 μL volumes comprising a 10-fold dilution series of α-factor (0-100 μM) (GenScript) dissolved in SC+1% DMSO, and stimulated for 5 hrs. (30° C., 250 r.p.m.). Flow cytometric measurement was done to quantify yEGFP levels (B525/45-A) and PRP-regulated morphological changes, denoted shmooing (SSC-A) using a NovoCyte Quanteon flow cytometer (Agilent). Data represents means of median fluorescence intensity (mMFI) for three biological replicates and standard deviations hereof. Two-way ANOVA with Tukey's multiple comparisons test was conducted for all conditions.

The test system of another data set is CD19. The data set is described as follows: Yeast surface display (YSD) of CD19, antibody staining and flow cytometry. It is filed as cell-based, Saccharomyces cerevisiae. The note with it: for fold upregulation of CD19 display relative to unstimulated condition: α-factor 0-100 μM, 20 hrs, promoter driving CD19 in DIX41 background. As to the method:
To investigate the different variants of CD19 modules, yeast cells were grown and, in some cases, stimulated to present CD19 differentially, whereafter they were stained with antibodies and assessed by flow cytometry. Flow cytometric measurement was done using a NovoCyte Quanteon flow cytometer (Agilent) to quantify CD19 by staining with mouse anti-CD19 (FMC63) (Absolute Antibody; Ab00613) and goat anti-mouse-AF647 (polyclonal) (Thermo Fisher; A-21236), detected in R667/30-H, as well as rabbit anti-HA (RM305) (Thermo Fisher; MA5-27915) and goat anti-rabbit-AF488 (polyclonal) (Thermo Fisher; A-11008), detected in B525/45-H (see FIG. 7), and to measure PRP-regulated morphological changes (SSC-H). […] Data represents means of median fluorescence intensity (mMFI) for three biological replicates and standard deviations hereof. Two-way ANOVA with multiple comparisons tests was conducted for all conditions. Histograms are representative replicates. No SSC-normalization was used in the evaluation of the effector module, unlike in Example 1, as it is the absolute response of all effects combined that constitute the total output that CAR T cells interpret and react to.
For conventional YSD using strain EBY100 and pCT-plasmid-based expression (Chao et al. 2006, Isolating and engineering human antibodies using yeast surface display. Nature Protocols, 1(2), 755-768), strains were pre-grown in SC −trp, then transferred to 5 mL SC −trp +2% Gal for induction of YSD or +2% Gluc as a negative control (24 hrs., 30° C., 250 r.p.m.). NALM6 was cultured in RPMI 1640 medium (ATCC modification) (Thermo Fisher) with 10% fetal bovine serum and 1% pen-strep (RPMI+10% FBS) at 37° C. with 5% CO2. For the investigation of PGAL1-titratability of DIX41 with pMAD58 and DIX74, strains were pre-grown in SC −ura and SC, respectively, then transferred to SC −ura and SC, respectively, with varying concentrations of galactose (0.0002%-2% Gal), using raffinose as compensating carbon source, and YSD was induced for 24 hrs. (30° C., 250 r.p.m.). Strains were similarly grown in 2% Gluc as negative controls. For the investigation of the strain library with constitutive and dynamically regulated expression of CD19 (Background strain/No YSD, PPGK1-Empty, PMFA2-CD19, PFUS1-CD19, PFIG.1-CD19, PMFA1-CD19, PHPF1-CD19, PTDH3-CD19, PPGK1-CD19) the strains were pre-grown in SC, whereafter, for each replicate, 50.000 cells were transferred to 300 μL volumes comprising a 10-fold dilution series of α-factor (0-100 μM) (GenScript) dissolved in SC+1% DMSO, and stimulated for 20 hrs. (30° C., 250 r.p.m.).

Bounds are passed on as bounds.

Consider “α-factor (GenScript) (from UniProt P01149 90-102) (peptide)”, for which, in data set [1], the fold change of induction of yEGFP, SSC-normalized, promoter PFIG1, maximum at 100 µM α-factor was 129 fold; the fold change of induction of yEGFP, SSC-normalized, promoter PHPF1 is 0.62 fold; the fold change of yEGFP, unnormalized, promoter PFIG1, 1 µM α-factor came out at 517 fold; the fold change of yEGFP, unnormalized, promoter PFIG1, 100 µM α-factor was found to be 483 fold. In data set [1], the fold upregulation of CD19 display, promoter PFIG1, 20 hrs α-factor was found to be 630 fold; the fold upregulation of CD19 display, promoter PFUS1, 20 hrs α-factor stood at 774 fold; the fold upregulation of CD19 display, promoter PTDH3 came out at 3.1 fold; the general PRP-induced expression boost of yEGFP after 5 hrs of GPCR stimulation was 4.01 fold. In addition, in data set [1], the maximal fold change of CD19 display, promoters PHPF1, PTDH3 and PPGK1, lower end is 2.9 to 3.8 fold; the maximal fold change of CD19 display, promoters PHPF1, PTDH3 and PPGK1, upper end was in the range of 2.9 to 3.8 fold.
For α-factor [reference compound], in data set [2] (across all strains, 5 hrs), the “α-factor concentration at which shmooing (SSC-A) was most intense” value was no less than 0.01 µM and the “α-factor concentration at which shmooing generally peaked” value worked out at 1 µM.

B1: PFUS1: pheromone-responsive Saccharomyces cerevisiae promoter, SEQ ID NO: 8, processing module (yEGFP strain DIX24, CD19 strain DIX45) (nucleic acid, listed as Saccharomyces cerevisiae)
DNA: TAATAATCAGAACTCCAACAATAGTCAACAGGGCTATAACCAATCCTATCAAAACGGTAACCAAAATAGTCAAGGTTACAATAATCAACAGTACCAAGGTGGCAACGGTGGTTACCAACAACAACAGGGACAATCTGGTGGTGCTTTTTCCTCATTGGCCTCCATGGCTCAATCTTACTTAGGTGGTGGACAAACTCAATCCAACCAACAGCAATACAATCAACAAGGCCAAAACAACCAGCAGCAATACCAGCAACAAGGCCAAAACTATCAGCATCAACAACAGGGTCAGCAGCAGCAACAAGGCCACTCCAGTTCATTCTCAGCTTTGGCTTCCATGGCAAGTTCCTACCTGGGCAATAACTCCAATTCAAATTCGAGTTATGGGGGCCAGCAACAGGCTAATGAGTATGGTAGACCGCAACAGAATGGTCAACAGCAATCCAATGAGTACGGAAGACCGCAATACGGCGGAAACCAGAACTCCAATGGACAGCACGAATCCTTCAATTTTTCTGGCAACTTTTCTCAACAGAACAATAACGGCAACCAGAACCGCTACTGAACGATGATTCAGTTCGCCTTCTATCCTTTGTTTACGTATTTGTTTATATATATAACTTTATTTTTTTTTATTAATTGGGCTGCAAGACAATTTTGTTGTCAGTGATGCCTCAATCCTTCTTTTGCTTCCATATTTACCATGTGGACCCTTTCAAAACAGAGTTGTATCTCTGCAGGATGCCCTTTTTGACGTATTGAATGGCATAATTGCACTGTCACTTTTCGCGCTGTCTCATTTTGGTGCGATGATGAAACAAACATGAAACGTCTGTAATTTGAAACAAATAACGTAATTCTCGGGATTGGTTTTATTTAAATGACAATGTAAGAGTGGCTTTGTAAGGTATGTGTTGCTCTTAAAATATTTGGATACGACATCCTTTATCTTTTTTCCTTTAAGAGCAGGATATAAGCCATCAAGTTTCTGAAAATCAAA
Turning to B1, in the data set on CD19 (no GPCR stimulation), the “CD19 level at unstimulated conditions” value is “extremely low levels of CD19 at the limit of detection”. For the same molecule, the “fold upregulation of CD19 display relative to unstimulated condition” value with CD19 came to 774±165 fold. Also, in data set [2] (PFUS1 STE12+ strain), the “maximal absolute yEGFP output relative to orthogonal P6xLexOLEU2 ste12Δ0 strain” value is given as 4.2 fold. The “promoter strength relative to P6xLexOLEU2 at maximal induction” value in data set [2] (SSC-normalized promoter activity) was 1.4 fold.

B2: PTDH3: constitutive Saccharomyces cerevisiae promoter, SEQ ID NO: 10, processing module (DIX28, DIX49) (nucleic acid, listed as Saccharomyces cerevisiae)
DNA: CTATTTTCGAGGACCTTGTCACCTTGAGCCCAAGAGAGCCAAGATTTAAATTTTCCTATGACTTGATGCAAATTCCCAAAGCTAATAACATGCAAGACACGTACGGTCAAGAAGACATATTTGACCTCTTAACAGGTTCAGACGCGACTGCCTCATCAGTAAGACCCGTTGAAAAGAACTTACCTGAAAAAAACGAATATATACTAGCGTTGAATGTTAGCGTCAACAACAAGAAGTTTAATGACGCGGAGGCCAAGGCAAAAAGATTCCTTGATTACGTAAGGGAGTTAGAATCATTTTGAATAAAAAACACGCTTTTTCAGTTCGAGTTTATCATTATCAATACTGCCATTTCAAAGAATACGTAAATAATTAATAGTAGTGATTTTCCTAACTTTATTTAGTCAAAAAATTAGCCTTTTAATTCTGCTGTAACCCGTACATGCCCAAAATAGGGGGCGGGTTACACAGAATATATAACATCGTAGGTGTCTGGGTGAACAGTTTATTCCTGGCATCCACTAAATATAATGGAGCCCGCTTTTTAAGCTGGCATCCAGAAAAAAAAAGAATCCCAGCACCAAAATATTGTTTTCTTCACCAACCATCAGTTCATAGGTCCATTCTCTTAGCGCAACTACAGAGAACAGGGGCACAAACAGGCAAAAAACGGGCACAACCTCAATGGAGTGATGCAACCTGCCTGGAGTAAATGATGACACAAGGCAATTGACCCACGCATGTATCTATCTCATTTTCTTACACCTTCTATTACCTTCTGCTCTCTCTGATTTGGAAAAAGCTGAAAAAAAAGGTTGAAACCAGTTCCCTGAAATTATTCCCCTACTTGACTAATAAGTATATAAAGACGGTAGGTATTGATTGTAATTCTGTAAATCTATTTCTTAAACTTCTTAAATTCTACTTTTATAGTTAGTCTTTTTTTTAGTTTTAAAACACCAAGAACTTAGTTTCGAATAAACACACATAAACAAACAAA
Take B2: the “fold upregulation of CD19 display relative to unstimulated condition” value with CD19 was 3.1±0.3 fold. For the same molecule, in the data set on CD19 (α-factor stimulation), the “change of absolute CD19 output on upregulation compared with that of PFUS1” value was found to be 150.2%.
